One data set has as its system T1, Cc1ncc(CO)c(C=O)c1O.
T1 construct: full length, recombinant from E. coli; wild type untagged (as previously described); K229Q His-tagged (C-terminus; pET28a NdeI/EcoRI)
Briefly: purified protein. The data set is classed as biochemical, Escherichia coli. Particulars: MgATP co-substrate, 20 mM K-HEPES pH 7.5, 0.2 mM MgCl2, 37°C.

The test system of data set [1] is T2, Nc1ncnc2c1ncn2[C@@H]1O[C@H](COP(=O)(O)OP(=O)(O)OP(=O)(O)O)[C@@H](O)[C@H]1O.
T2 construct: full length, recombinant from E. coli; wild type untagged (as previously described); K229Q His-tagged (C-terminus; pET28a NdeI/EcoRI)
As to the kind of experiment: purified protein. The data set is classed as biochemical, Escherichia coli. To be noted: PL co-substrate, 20 mM K-HEPES pH 7.5, 0.2 mM MgCl2, 37°C.

What is called Km is the concentration of substrate that gives half-maximal velocity. In general, kcat refers to the maximal rate divided by the concentration of active sites.

Turning to “ePL kinase (E. coli pyridoxal kinase 1, PL kinase1) (Escherichia coli K-12)”, the values for the Michaelis-Menten constant (Km) (in the data set with Cc1ncc(CO)c(C=O)c1O; in data set [1]) were 60 µM and 460 µM, respectively. Besides, the kcat (in the data set with Cc1ncc(CO)c(C=O)c1O; in data set [1]) was 4 s⁻¹ each time.
On to “ePL kinase (E. coli pyridoxal kinase 1, PL kinase1) (Escherichia coli K-12; K229Q)”, for which, in the data set with Cc1ncc(CO)c(C=O)c1O (His-tagged), the Km is on record as 384 µM and the kcat came out at 0.433 s⁻¹. Further, in data set [1] (His-tagged), the Km amounted to 122 µM and the turnover number (kcat) came out at 0.433 s⁻¹.
